According to PMC5425604, “Fe65-PTB2 Dimerization Mimics Fe65-APP Interaction” (Frontiers in Molecular Neuroscience, 2017):
Several values for one entry are separate records, joined by “and”; a condition that tells them apart may be missing. Identical values can stand only once.

How the values were obtained:
[1] = biological target: the molecule itself; assay: SEC-MALS; MALS in line with SEC, refractive index; SEC buffer with 5% (v/v) glycerol
[2] = biological target: the molecule itself; assay: SAXS; 0.25-6 mg/mL, 20 mM Na2HPO4 pH 6.5, 150 mM NaCl, 2 mM DTT (reducing), 300 K; monomer to dimer
[3] = biological target: the molecule itself; assay: native gel or EMSA; Blue Native gel of cytosolic and membrane fractions of HEK293 cells expressing Fe65-HA, with or without APP-myc; blots for HA and myc

B1: Human Fe65-PTB2 (residues 534-667), crystallization construct (domain or fragment, UniProt O00213 534-667, looked up)
chain: APKNELVQKFQVYYLGNVPVAKPVGVDVINGALESVLSSSSREQWTPSHVSVAPATLTILHQQTEAVLGECRVRFLSFLAVGRDVHTFAFIMAAGPASFCCHMFWCEPNAASLSEAVQAACMLRYQKCLDARSQ
notes: Fe65 (APBB1), human, PTB2 domain, residues 534-667 of UniProtKB APBB1_HUMAN O00213; source: recombinantly expressed and purified as described previously (Radzimanowski et al., 2008a); final SEC with 5% glycerol
stoichiometry N [1]: 2 and 4

B2: Wildtype Fe65-PTB2 (pETHis construct for NMR and SAXS) (domain or fragment, human, UniProt O00213 534-667, looked up)
chain: B1 chain
notes: Fe65 (APBB1), human, PTB2 domain; limits 534-667 are stated for recombinant Fe65-PTB2 in general, not separately for the pETHis construct; also called wt Fe65-PTB2
stoichiometry N [2]: 2

B3: Fe65-HA (natural protein, human, UniProt O00213 1-710, looked up)
chain: MSVPSSLSQSAINANSHGGPALSLPLPLHAAHNQLLNAKLQATAVGPKDLRSAMGEGGGPEPGPANAKWLKEGQNQLRRAATAHRDQNRNVTLTLAEEASQEPEMAPLGPKGLIHLYSELELSAHNAANRGLRGPGLIISTQEQGPDEGEEKAAGEAEEEEEDDDDEEEEEDLSSPPGLPEPLESVEAPPRPQALTDGPREHSKSASLLFGMRNSAASDEDSSWATLSQGSPSYGSPEDTDSFWNPNAFETDSDLPAGWMRVQDTSGTYYWHIPTGTTQWEPPGRASPSQGSSPQEESQLTWTGFAHGEGFEDGEFWKDEPSDEAPMELGLKEPEEGTLTFPAQSLSPEPLPQEEEKLPPRNTNPGIKCFAVRSLGWVEMTEEELAPGRSSVAVNNCIRQLSYHKNNLHDPMSGGWGEGKDLLLQLEDETLKLVEPQSQALLHAQPIISIRVWGVGRDSGRERDFAYVARDKLTQMLKCHVFRCEAPAKNIATSLHEICSKIMAERRNARCLVNGLSLDHSKLVDVPFQVEFPAPKNELVQKFQVYYLGNVPVAKPVGVDVINGALESVLSSSSREQWTPSHVSVAPATLTILHQQTEAVLGECRVRFLSFLAVGRDVHTFAFIMAAGPASFCCHMFWCEPNAASLSEAVQAACMLRYQKCLDARSQASTSCLPAPPAESVARRVGWTVRRGVQSLWGSLKPKRLGAHTP
notes: Fe65 (APBB1); called full-length Fe65 in the native gel analysis; human stated for Fe65 in general; Printed both as FE65-HA and HA-Fe65; also called HA-Fe65; HA-tagged Fe65; source: HEK293, transfected (pcDNA3.1), in lysate or subcellular fraction
stoichiometry N [3]: 2
